Measured values published in IntAct's records for PubMed 21098279.

B1: "Secreted effector protein EspF(U)" (Escherichia coli O157:H7), P0DJ88 (parent)
chain: MINNVSSLFPTVNRNITAVYKKSSFSVSPQKITLNPVKISSPFSPSSSSISATTLFRAPNAHSASFHRQSTAESSLHQQLPNVRQRLIQHLAEHGIKPARSMAEHIPPAPNWPAPPPPVQNEQSRPLPDVAQRLVQHLAEHGIQPARNMAEHIPPAPNWPAPPLPVQNEQSRPLPDVAQRLVQHLAEHGIQPARSMAEHIPPAPNWPAPPPPVQNEQSRPLPDVAQRLMQHLAEHGIQPARNMAEHIPPAPNWPAPTPPVQNEQSRPLPDVAQRLMQHLAEHGIQPARNMAEHIPPAPNWPAPTPPVQNEQSRPLPDVAQRLMQHLAEHGINTSKRS
partner: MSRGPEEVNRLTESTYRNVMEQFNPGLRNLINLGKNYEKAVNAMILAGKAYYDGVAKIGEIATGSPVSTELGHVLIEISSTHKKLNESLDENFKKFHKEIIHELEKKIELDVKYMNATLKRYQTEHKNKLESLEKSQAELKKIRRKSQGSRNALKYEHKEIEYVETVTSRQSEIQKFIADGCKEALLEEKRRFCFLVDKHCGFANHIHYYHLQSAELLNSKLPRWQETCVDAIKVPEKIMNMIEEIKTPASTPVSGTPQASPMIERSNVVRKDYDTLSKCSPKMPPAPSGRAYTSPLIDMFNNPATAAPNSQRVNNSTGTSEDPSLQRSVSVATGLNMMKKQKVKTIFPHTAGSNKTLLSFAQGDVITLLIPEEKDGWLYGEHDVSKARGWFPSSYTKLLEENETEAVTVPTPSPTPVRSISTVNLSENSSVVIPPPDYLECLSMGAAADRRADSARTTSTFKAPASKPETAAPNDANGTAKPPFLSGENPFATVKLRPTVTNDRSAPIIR

Variants of: B1
Conditions: with bi2l1_human BAIAP2L1, Q9UHR4

Q: How did the “effect of a mutation on the interaction” value turn out when N299G;W300G;P301G was run?
A: decreasing interaction

Q: N299P;W300P was tested. Which “effect of a mutation on the interaction” value did it give?
A: decreasing interaction

Q: N299A;W300A;P301A was tested. Which “effect of a mutation on the interaction” value did it give?
A: decreasing interaction
